Laboratory results: US20040204348A1 (ANGSTROM PHARMACEUTICALS, published 2004)
Bridges are numbered along the chain shown (N, C = ends). L10 (R1 : -NH-m-phenylene-NH2) = linker L10: -CO-CH2-NH-CO-CH2-CH2-CH(CO-NH-CH2-COR1)-NH- with R1 = -NH-m-phenylene-NH2; L10 (R1 : -NH-o-phenylene-NH2) = linker L10: -CO-CH2-NH-CO-CH2-CH2-CH(CO-NH-CH2-COR1)-NH- with R1 = -NH-o-phenylene-NH2; L10 (R1 : -NH-p-phenylene-NH2) = linker L10: -CO-CH2-NH-CO-CH2-CH2-CH(CO-NH-CH2-COR1)-NH- with R1 = -NH-p-phenylene-NH2; L15 (R1 : phenyl) = linker L15: -CO-CH2-NH-CO-CH2-CH2-CH(CO-NH-CH2-CO-NH-R1)-NH- with R1 = phenyl (anilide)

B1: receptor targeting ligand-p-phenylenediamine derivative (RTLPPD) (peptide)
peptide: VSNKYFSNIHW
modifications: linker N-C via L10 (R1 : -NH-p-phenylene-NH2); also: cyclised by linker L10 between X1 N and X11 carbonyl
B2: Oregon Green-modified-RTLPPD (peptide)
peptide: VSNKYFSNIHW
modifications: linker N-C via L10 (R1 : -NH-p-phenylene-NH2); also: Oregon Green (5/6-isomer mix) label, site not certain (intended on phenylenediamine amine)
notes: RTLPPD reacted with Oregon Green isothiocyanate; also called Oregon Green-labeled-RTLPPD
B3: biotin-modified-RTLPPD (peptide)
peptide: VSNKYFSNIHW
modifications: linker N-C via L10 (R1 : -NH-p-phenylene-NH2); also: biotin-X (7-atom spacer) label, site not given here
notes: RTLPPD reacted with Biotin-X-sulfoNHS
B4: RTLMPD (peptide)
peptide: VSNKYFSNIHW
modifications: linker N-C via L10 (R1 : -NH-m-phenylene-NH2); also: cyclised by linker L10 between X1 N and X11 carbonyl
notes: also called isomer of RTLPPD incorporating m-phenylenediamine (MPD)
B5: RTLOPD (peptide)
peptide: VSNKYFSNIHW
modifications: linker N-C via L10 (R1 : -NH-o-phenylene-NH2); also: cyclised by linker L10 between X1 N and X11 carbonyl
notes: also called isomer of RTLPPD incorporating o-phenylenediamine (OPD)
B6: Å36 (peptide)
peptide: VSNKYFSNIHW
modifications: linker N-C via L15 (R1 : phenyl); also: cyclised by linker L15 between X1 N and X11 carbonyl
notes: also called A36; cyclic peptide Å36

target: T1, uPAR expressed on cells (RKO human colon carcinoma cells, HeLa cells, stimulated HUVEC) (human, UniProt Q03405 23-305); test: competition with 0.2 nM [125I]DFP-uPA on RKO cells, 4 C
T1 construct: whole, on cells; GPI-anchored receptor on whole cells
T1 sequence (Q03405 23-305): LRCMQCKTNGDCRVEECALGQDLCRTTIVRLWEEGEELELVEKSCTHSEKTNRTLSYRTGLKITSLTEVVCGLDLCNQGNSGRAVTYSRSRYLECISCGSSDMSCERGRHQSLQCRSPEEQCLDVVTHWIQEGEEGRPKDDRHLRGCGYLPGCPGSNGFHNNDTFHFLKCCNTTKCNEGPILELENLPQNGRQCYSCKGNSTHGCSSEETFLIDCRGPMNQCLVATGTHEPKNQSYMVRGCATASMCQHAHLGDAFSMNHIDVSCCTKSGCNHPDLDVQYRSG
Description: The compounds of the invention were tested for their binding to uPAR by measuring their ability to inhibit the binding of [¹²⁵I]DFP-uPA (catalytically inactivated high molecular weight uPA) to uPAR expressed by RKO (human colon carcinoma) cells. Cells (about 5×10⁴/well) were plated (in MEM with Earle's salts/10% FBS+antibiotics) in 24-well plates, then incubated in a humid 5% CO₂ atmosphere until the cells reach 70% confluence. Catalytically inactivated high molecular weight uPA (DFP-uPA) was radioiodinated using Iodo-gen® (Pierce) to a specific activity of about 250,000 cpm/mg. The cell-containing plates were then chilled on ice and the cells were washed twice (5 minutes each) with cold PBS/0.05% Tween-80. Test compounds were serially diluted in cold PBS/0.1% BSA/0.01% Tween-80 and added to each well to a final volume of 0.3 mL 10 minutes prior to the addition of the [¹²⁵I]DFP-uPA. Each well then receives 9500 cpm of [¹²⁵I]DFP-uPA at a final concentration of 0.2 nM. The plates were incubated at 4° C. for 2 hrs, after which time the cells were washed 3× (5 minutes each) with cold PBS/0.05% Tween-80. NaOH (1N; 0.5 mL) was added to each well to lyse the cells, the contents of each well were aspirated and the total counts in each well determined using a gamma counter. Each compound was tested in triplicate and the results are expressed as a percentage of the total radioactivity measured in wells containing [¹²⁵I]DFP-uPA alone, which is taken to represent maximum (100%) binding.
RTLPPD inhibited the binding of [¹²⁵I]DFP-uPA with an IC₅₀ of approximately 5 nM (FIG. 3). Modification of RTLPPD with Oregon Green shifted the IC₅₀ to approximately 800 nM (FIG. 3) and modification with biotin shifted the IC₅₀ to approximately 1.1 μM (FIG. 4). RTLMPD and RTLOPD inhibited the binding of [¹²⁵I]DFP-uPA to RKO cells with an IC₅₀ of approximately 50 and 100 nM , respectively (FIG. 3).

Binder | IC50 [nM]
B1 | ~5
B2 | ~800
B3 | ~1100
B4 | ~50
B5 | ~100

target: T1, uPAR expressed on cells (RKO human …); test: whole-cell competition with [125I]DFP-uPA on HeLa cells, as the method is described; competition for binding to HeLa cells, not BIAcor
Description: HeLa cells (about 5×10⁴/well) were plated in medium MEM with Earle's salts/10% FBS+antibiotics) in 24-well plates, then incubated in a humid 5% CO₂ atmosphere until the cells reached 70% confluence. Catalytically inactivated high molecular weight uPA (DFP-uPA) labeled with radioactive ¹²⁵I (specific activity 250,000 cpm/mg) served as the uPAR label. Plates in which the cells were incubated were chilled on ice and the cells were washed twice (5 minutes each) with cold PBS/0.05% Tween-80. DFP-UPA and Å36 were serially diluted in cold PBS/0.1% BSA/0.01% Tween-80 and added to each well to a final volume of 0.3 mL 10 minutes prior to the addition of [¹²⁵I]DFP-UPA. Each well then received 9500 cpm of [¹²⁵I]DFP-UPA at a final concentration of 0.2 nM). The plates were incubated at 4° C. for 2 hrs, after which the cells are washed 3× (5 minutes each) with cold PBS/0.05% Tween-80. Cells were lysed by addition of NaOH (1N) 0.5 mL/well for 5 minutes at room temperature or until all the cells in each well were lysed by microscopic examination. The contents of each well were aspirated, and the total counts in each well were determined using a gamma counter. Each compound was tested in triplicate and the results were expressed as a percentage of the total radioactivity measured in wells containing [¹²⁵I]DFP-uPA alone, which is taken to represent maximum (100%) binding.

Binder | Kd [nM]
B6 | 30
